# Laboratory results: article PMC2408645
# Where two headings read alike, the source gives them in different places.
# What was measured:
# Assay in all cases: two-hybrid
# [1] = target: NeuS (E. coli K1 (strain EV36))
# [2] = target: NeuS (E. coli K1 (strain EV36)); remark: listed apart in the source
# [3] = target: KpsC (E. coli K1 (strain EV36)) (UniProt P42217)
# [4] = target: KpsC (E. coli K1 (strain EV36)) (UniProt P42217); remark: listed apart in the source
substance,measurement,setting,value
NeuE (natural protein),"beta-galactosidase activity, early",[1],17 Miller units
same,"beta-galactosidase activity, early",[2],16 Miller units
KpsC (from UniProt P42217 1-675) (natural protein),"beta-galactosidase activity, early",[3],220 Miller units
same,"beta-galactosidase activity, late",[3],540 Miller units
same,"beta-galactosidase activity, early",[1],560 Miller units
same,"beta-galactosidase activity, late",[1],4700 Miller units
same,"beta-galactosidase activity, early",[4],200 Miller units
same,"beta-galactosidase activity, late",[4],760 Miller units
same,"beta-galactosidase activity, early",[2],420 Miller units
same,"beta-galactosidase activity, late",[2],5540 Miller units
KpsE (natural protein),"beta-galactosidase activity, early",[3],65 Miller units
same,"beta-galactosidase activity, late",[3],120 Miller units
same,"beta-galactosidase activity, early",[4],230 Miller units
same,"beta-galactosidase activity, late",[4],1170 Miller units
same,"beta-galactosidase activity, early",[2],140 Miller units
same,"beta-galactosidase activity, late",[2],1050 Miller units
NeuS (enzyme),"beta-galactosidase activity, early",[3],18 Miller units
same,"beta-galactosidase activity, early",[4],15 Miller units
